B1: S100A14 (parent)
chain: KIANLGSCNDSKLEFRSFWELIGE

Variants of: B1
Assay: protein stability index of a GFP-peptide fusion (GPS, HEK-293T) (PSI 1-6); higher = more stable
Details: c terminus: a fixed tail appended
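Note: lentivirally expressed fusions sorted by FACS into six bins by GFP to DsRed ratio, PSI derived from sequencing read proportions per bin multiplied by bin number.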

In order of falling protein stability index:
1. KIANLLSCNDSKLEFRSFWELIGE  3.46
2. KIANLGSCNWSKLEFRSFWELIGE  3.28
3. KIANLGSCNDSELEFRSFWELIGE  3.21
4. KIANLGSINDSKLEFRSFWELIGE  3.2
5. KIAKLGSCNDSKLEFRSFWELIGE  3.15
6. KIFNLGSCNDSKLEFRSFWELIGE  3.12
7. KIANLKSCNDSKLEFRSFWELIGE  3.01
8. KIANLNSCNDSKLEFRSFWELIGE  2.94
9. KSANLGSCNDSKLEFRSFWELIGE  2.9
10. KIANKGSCNDSKLEFRSFWELIGE  2.89
11. KIANLGSCNMSKLEFRSFWELIGE  2.85
12. KIANLGSCNGSKLEFRSFWELIGE  2.84
13. KIAGLGSCNDSKLEFRSFWELIGE  2.83
14. KIANLGSCNDPKLEFRSFWELIGE  2.81
15. KIVNLGSCNDSKLEFRSFWELIGE  2.78
16. KIANEGSCNDSKLEFRSFWELIGE  2.74
17. KIAHLGSCNDSKLEFRSFWELIGE  2.71
18. KIAFLGSCNDSKLEFRSFWELIGE  2.7
19. KIMNLGSCNDSKLEFRSFWELIGE  2.69
20. KIANDGSCNDSKLEFRSFWELIGE  2.67
21. KIANLGSDNDSKLEFRSFWELIGE  2.63
22. KIANLGSCNDCKLEFRSFWELIGE  2.62
23. KIANLGVCNDSKLEFRSFWELIGE  2.58
24. KIAWLGSCNDSKLEFRSFWELIGE  2.55
25. KIANLGSCNLSKLEFRSFWELIGE  2.55
26. KIANLMSCNDSKLEFRSFWELIGE  2.51
27. KIANLVSCNDSKLEFRSFWELIGE  2.51
28. KIANLGPCNDSKLEFRSFWELIGE  2.5
29. KIGNLGSCNDSKLEFRSFWELIGE  2.48
30. KIANLCSCNDSKLEFRSFWELIGE  2.45
31. KIANNGSCNDSKLEFRSFWELIGE  2.44
32. KIANLGSCNDVKLEFRSFWELIGE  2.42
33. KIANLGSCNSSKLEFRSFWELIGE  2.4
34. KIANLGSCNDFKLEFRSFWELIGE  2.39
35. KIANLGSCNNSKLEFRSFWELIGE  2.39
36. KIANLGSCNDAKLEFRSFWELIGE  2.38
37. KIHNLGSCNDSKLEFRSFWELIGE  2.38
38. KIANLGNCNDSKLEFRSFWELIGE  2.32
39. KIAYLGSCNDSKLEFRSFWELIGE  2.32
40. KIANLGSCNVSKLEFRSFWELIGE  2.32
41. KHANLGSCNDSKLEFRSFWELIGE  2.31
42. KIANLGSCNHSKLEFRSFWELIGE  2.31
43. KIANSGSCNDSKLEFRSFWELIGE  2.29
44. KIWNLGSCNDSKLEFRSFWELIGE  2.28
45. KIANCGSCNDSKLEFRSFWELIGE  2.27
46. KIANLGHCNDSKLEFRSFWELIGE  2.25
47. KIANRGSCNDSKLEFRSFWELIGE  2.25
48. KIANLGSGNDSKLEFRSFWELIGE  2.24
49. KIANLGSCNDSDLEFRSFWELIGE  2.24
50. KIANLGSCKDSKLEFRSFWELIGE  2.23
51. KIANLGSCGDSKLEFRSFWELIGE  2.22
52. KIANLGSCNDNKLEFRSFWELIGE  2.21
53. KIANLGSCNESKLEFRSFWELIGE  2.21
54. KIANLWSCNDSKLEFRSFWELIGE  2.21
55. KIANLGSCEDSKLEFRSFWELIGE  2.19
56. KIANQGSCNDSKLEFRSFWELIGE  2.17
57. KIANLGFCNDSKLEFRSFWELIGE  2.13
58. KRANLGSCNDSKLEFRSFWELIGE  2.13
59. KPANLGSCNDSKLEFRSFWELIGE  2.12
60. KIANLASCNDSKLEFRSFWELIGE  2.11
61. KIANLSSCNDSKLEFRSFWELIGE  2.1
62. KIANLGCCNDSKLEFRSFWELIGE  2.09
63. KIANVGSCNDSKLEFRSFWELIGE  2.09
64. KIANLGSCNDQKLEFRSFWELIGE  2.08
65. KIANPGSCNDSKLEFRSFWELIGE  2.08
66. KIANLGSVNDSKLEFRSFWELIGE  2.08
67. KIANLGSRNDSKLEFRSFWELIGE  2.07
68. KIANLESCNDSKLEFRSFWELIGE  2.06
69. KIANLGSCADSKLEFRSFWELIGE  2.06
70. KIANLGRCNDSKLEFRSFWELIGE  2.03
71. KIANFGSCNDSKLEFRSFWELIGE  2.03
72. KIANLGSCNDSALEFRSFWELIGE  2.02
73. KIAALGSCNDSKLEFRSFWELIGE  2.01
74. KIANLGSCVDSKLEFRSFWELIGE  2.01
75. KIANLGSCNDSCLEFRSFWELIGE  2.01
76. KIANLGSCNDRKLEFRSFWELIGE  2
77. KIASLGSCNDSKLEFRSFWELIGE  2
78. KGANLGSCNDSKLEFRSFWELIGE  2
79. KTANLGSCNDSKLEFRSFWELIGE  2
80. KMANLGSCNDSKLEFRSFWELIGE  1.99
81. KIANLGSSNDSKLEFRSFWELIGE  1.99
82. KIQNLGSCNDSKLEFRSFWELIGE  1.98
83. KIAVLGSCNDSKLEFRSFWELIGE  1.98
84. KIANLGSCNKSKLEFRSFWELIGE  1.98
85. KIANLGSCPDSKLEFRSFWELIGE  1.98
86. KIDNLGSCNDSKLEFRSFWELIGE  1.97
87. KIANLGSCMDSKLEFRSFWELIGE  1.97
88. KIANLGSENDSKLEFRSFWELIGE  1.97
89. KIANLGDCNDSKLEFRSFWELIGE  1.96
90. KIENLGSCNDSKLEFRSFWELIGE  1.95
91. KIANLGSCNTSKLEFRSFWELIGE  1.95
92. KIANLGSCNCSKLEFRSFWELIGE  1.95
93. KIANLQSCNDSKLEFRSFWELIGE  1.95
94. KIANLGSCNFSKLEFRSFWELIGE  1.92
95. KIANLRSCNDSKLEFRSFWELIGE  1.92
96. KIANLGSCYDSKLEFRSFWELIGE  1.91
97. KIAILGSCNDSKLEFRSFWELIGE  1.9
98. KIANLGSCNDDKLEFRSFWELIGE  1.89
99. KIANLGICNDSKLEFRSFWELIGE  1.89
100. KIANLGWCNDSKLEFRSFWELIGE  1.89
101. KIANAGSCNDSKLEFRSFWELIGE  1.89
102. KVANLGSCNDSKLEFRSFWELIGE  1.88
103. KWANLGSCNDSKLEFRSFWELIGE  1.88
104. KIANHGSCNDSKLEFRSFWELIGE  1.88
105. KIANLGECNDSKLEFRSFWELIGE  1.87
106. KIANLGSCFDSKLEFRSFWELIGE  1.86
107. KIANMGSCNDSKLEFRSFWELIGE  1.85
108. KIANLYSCNDSKLEFRSFWELIGE  1.85
109. KIANLGYCNDSKLEFRSFWELIGE  1.83
110. KIAPLGSCNDSKLEFRSFWELIGE  1.83
111. KIANLGSCWDSKLEFRSFWELIGE  1.83
112. KLANLGSCNDSKLEFRSFWELIGE  1.8
113. KIANLGSCHDSKLEFRSFWELIGE  1.8
114. KIANLGLCNDSKLEFRSFWELIGE  1.79
115. KIYNLGSCNDSKLEFRSFWELIGE  1.79
116. KIANLGSPNDSKLEFRSFWELIGE  1.79
117. KEANLGSCNDSKLEFRSFWELIGE  1.77
118. KIANLGSCQDSKLEFRSFWELIGE  1.77
119. KIANLGSANDSKLEFRSFWELIGE  1.77
120. KIANLGSTNDSKLEFRSFWELIGE  1.76
121. KIANLGSCNDIKLEFRSFWELIGE  1.75
122. KIACLGSCNDSKLEFRSFWELIGE  1.75
123. KIANLISCNDSKLEFRSFWELIGE  1.75
124. KIANLGSCCDSKLEFRSFWELIGE  1.75
125. KIINLGSCNDSKLEFRSFWELIGE  1.74
126. KIANLGSCNRSKLEFRSFWELIGE  1.74
127. KIADLGSCNDSKLEFRSFWELIGE  1.73
128. KIAQLGSCNDSKLEFRSFWELIGE  1.72
129. KIANGGSCNDSKLEFRSFWELIGE  1.72
130. KIANLGSCNISKLEFRSFWELIGE  1.72
131. KIANLGTCNDSKLEFRSFWELIGE  1.71
132. KIATLGSCNDSKLEFRSFWELIGE  1.7
133. KIANLGSCNQSKLEFRSFWELIGE  1.7
134. KIANLGSCNDKKLEFRSFWELIGE  1.69
135. KIANLGSCIDSKLEFRSFWELIGE  1.69
136. KIANLGSCNDEKLEFRSFWELIGE  1.68
137. KIANLGQCNDSKLEFRSFWELIGE  1.68
138. KIAELGSCNDSKLEFRSFWELIGE  1.68
139. KIANLGSQNDSKLEFRSFWELIGE  1.68
140. KIANLGSNNDSKLEFRSFWELIGE  1.68
141. KIALLGSCNDSKLEFRSFWELIGE  1.67
142. KIANLPSCNDSKLEFRSFWELIGE  1.67
143. KISNLGSCNDSKLEFRSFWELIGE  1.66
144. KIANLGSCNASKLEFRSFWELIGE  1.66
145. KITNLGSCNDSKLEFRSFWELIGE  1.65
146. KIAMLGSCNDSKLEFRSFWELIGE  1.64
147. KIANLGSCNPSKLEFRSFWELIGE  1.64
148. KIANLGSCNYSKLEFRSFWELIGE  1.63
149. KIANLTSCNDSKLEFRSFWELIGE  1.63
150. KIANLGSCNDHKLEFRSFWELIGE  1.62
151. KIANLGMCNDSKLEFRSFWELIGE  1.62
152. KIANLGGCNDSKLEFRSFWELIGE  1.62
153. KICNLGSCNDSKLEFRSFWELIGE  1.62
154. KIANTGSCNDSKLEFRSFWELIGE  1.62
155. KDANLGSCNDSKLEFRSFWELIGE  1.61
156. KIANLDSCNDSKLEFRSFWELIGE  1.61
157. KNANLGSCNDSKLEFRSFWELIGE  1.6
158. KIANLGSCNDYKLEFRSFWELIGE  1.59
159. KIANLGSCDDSKLEFRSFWELIGE  1.59
160. KYANLGSCNDSKLEFRSFWELIGE  1.57
161. KIANLGSCNDTKLEFRSFWELIGE  1.56
162. KIANLGSCTDSKLEFRSFWELIGE  1.56
163. KIANLGSFNDSKLEFRSFWELIGE  1.56
164. KFANLGSCNDSKLEFRSFWELIGE  1.55
165. KIANLGSKNDSKLEFRSFWELIGE  1.55
166. KINNLGSCNDSKLEFRSFWELIGE  1.54
167. KKANLGSCNDSKLEFRSFWELIGE  1.54
168. KIANLGSCNDGKLEFRSFWELIGE  1.53
169. KIKNLGSCNDSKLEFRSFWELIGE  1.53
170. KIANYGSCNDSKLEFRSFWELIGE  1.53
171. KIANLGSCNDLKLEFRSFWELIGE  1.52
172. KIANLGACNDSKLEFRSFWELIGE  1.51
173. KIANLGSMNDSKLEFRSFWELIGE  1.51
174. KIANLHSCNDSKLEFRSFWELIGE  1.5
175. KIANLGSLNDSKLEFRSFWELIGE  1.49
176. KIANLGSCRDSKLEFRSFWELIGE  1.47
177. KIANLGKCNDSKLEFRSFWELIGE  1.44
178. KIANIGSCNDSKLEFRSFWELIGE  1.41
179. KIANLGSCNDMKLEFRSFWELIGE  1.4
180. KIRNLGSCNDSKLEFRSFWELIGE  1.33
181. KQANLGSCNDSKLEFRSFWELIGE  1.32
182. KIPNLGSCNDSKLEFRSFWELIGE  1.23
183. KIANLGSHNDSKLEFRSFWELIGE  1.22
184. KIANLGSCNDWKLEFRSFWELIGE  1.18
185. KIANLGSWNDSKLEFRSFWELIGE  1.12
186. KILNLGSCNDSKLEFRSFWELIGE  1.09
187. KIANLGSCSDSKLEFRSFWELIGE  1.08
188. KIARLGSCNDSKLEFRSFWELIGE  1.07

— the supplement of paper PMC10567573
